{
  "source": "paper PMC12298160",
  "about": "“Integrated Transcriptomic and Proteomic Analyses Reveal CsrA-Mediated Regulation of Virulence and Metabolism in Vibrio alginolyticus”",
  "target": "CsrA (6xHis-CsrA) (UniProt A0A2I3CA03 1-65)",
  "experiment": "EMSA; high affinity",
  "settings": "protein: recombinant; tags: 6xHis (named 6xHis-CsrA); chain copies: 2; label: biotin",
  "data": [
    {"binder": "rraA -64 to +36 RNA (ssRNA) RNA: AAGGUAUAGAAAAGGAUACUGCUCACUGAAGCAACGCUUGGGUGAGAAAAUUCACGGAGGAAAUAUGAGAGACAUUACACCCGAUAUUUGUGACCAAUUU", "values": [
      {"measurement": "binding result", "value": "binds"}
    ]}
  ]
}
